Results as given in the supplement of paper PMC5998384.

Legend:
HeLa Kyoto [1] = experiment: solubility in G1/S (NP-40 vs SDS abundance) (log2 ratio); higher = more soluble; settings: cell cycle stage: G1/S
HeLa Kyoto [2] = experiment: melting temperature (median over replicates), in situ; higher = more thermally stable
HeLa Kyoto [3] = experiment: solubility change mitosis vs G1/S (difference of NP-40 vs SDS log2 ratios) (log2 ratio difference); higher = more soluble in mitosis
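For melting temperature (median over replicates), in situ in this document: HeLa Kyoto cells synchronized by double thymidine or nocodazole block, proteins quantified by TMT10plex mass spectrometry, three independent biological replicates.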
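For solubility change mitosis vs G1/S (difference of NP-40 vs SDS log2 ratios) in this document: synchronized HeLa Kyoto cells (double thymidine block for G1/S, nocodazole release for mitosis), protein amounts in NP-40 versus SDS lysates quantified by mass spectrometry, three biological replicates.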
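For solubility in G1/S (NP-40 vs SDS abundance) in this document: HeLa Kyoto cells arrested at G1/S by double thymidine block, proteins quantified by TMT10plex mass spectrometry in mild NP-40 versus SDS extracts, three biological replicates.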

HMGN3, sequence (chain, as listed by the source): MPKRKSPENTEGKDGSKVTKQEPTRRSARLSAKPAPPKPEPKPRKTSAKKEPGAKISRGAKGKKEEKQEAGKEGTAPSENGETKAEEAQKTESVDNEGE
ZNF593, sequence (chain, as listed by the source): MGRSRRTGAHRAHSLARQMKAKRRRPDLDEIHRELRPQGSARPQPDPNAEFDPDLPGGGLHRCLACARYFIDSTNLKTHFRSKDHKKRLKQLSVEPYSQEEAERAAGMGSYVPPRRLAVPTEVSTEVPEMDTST
UNC13B, sequence (chain, as listed by the source): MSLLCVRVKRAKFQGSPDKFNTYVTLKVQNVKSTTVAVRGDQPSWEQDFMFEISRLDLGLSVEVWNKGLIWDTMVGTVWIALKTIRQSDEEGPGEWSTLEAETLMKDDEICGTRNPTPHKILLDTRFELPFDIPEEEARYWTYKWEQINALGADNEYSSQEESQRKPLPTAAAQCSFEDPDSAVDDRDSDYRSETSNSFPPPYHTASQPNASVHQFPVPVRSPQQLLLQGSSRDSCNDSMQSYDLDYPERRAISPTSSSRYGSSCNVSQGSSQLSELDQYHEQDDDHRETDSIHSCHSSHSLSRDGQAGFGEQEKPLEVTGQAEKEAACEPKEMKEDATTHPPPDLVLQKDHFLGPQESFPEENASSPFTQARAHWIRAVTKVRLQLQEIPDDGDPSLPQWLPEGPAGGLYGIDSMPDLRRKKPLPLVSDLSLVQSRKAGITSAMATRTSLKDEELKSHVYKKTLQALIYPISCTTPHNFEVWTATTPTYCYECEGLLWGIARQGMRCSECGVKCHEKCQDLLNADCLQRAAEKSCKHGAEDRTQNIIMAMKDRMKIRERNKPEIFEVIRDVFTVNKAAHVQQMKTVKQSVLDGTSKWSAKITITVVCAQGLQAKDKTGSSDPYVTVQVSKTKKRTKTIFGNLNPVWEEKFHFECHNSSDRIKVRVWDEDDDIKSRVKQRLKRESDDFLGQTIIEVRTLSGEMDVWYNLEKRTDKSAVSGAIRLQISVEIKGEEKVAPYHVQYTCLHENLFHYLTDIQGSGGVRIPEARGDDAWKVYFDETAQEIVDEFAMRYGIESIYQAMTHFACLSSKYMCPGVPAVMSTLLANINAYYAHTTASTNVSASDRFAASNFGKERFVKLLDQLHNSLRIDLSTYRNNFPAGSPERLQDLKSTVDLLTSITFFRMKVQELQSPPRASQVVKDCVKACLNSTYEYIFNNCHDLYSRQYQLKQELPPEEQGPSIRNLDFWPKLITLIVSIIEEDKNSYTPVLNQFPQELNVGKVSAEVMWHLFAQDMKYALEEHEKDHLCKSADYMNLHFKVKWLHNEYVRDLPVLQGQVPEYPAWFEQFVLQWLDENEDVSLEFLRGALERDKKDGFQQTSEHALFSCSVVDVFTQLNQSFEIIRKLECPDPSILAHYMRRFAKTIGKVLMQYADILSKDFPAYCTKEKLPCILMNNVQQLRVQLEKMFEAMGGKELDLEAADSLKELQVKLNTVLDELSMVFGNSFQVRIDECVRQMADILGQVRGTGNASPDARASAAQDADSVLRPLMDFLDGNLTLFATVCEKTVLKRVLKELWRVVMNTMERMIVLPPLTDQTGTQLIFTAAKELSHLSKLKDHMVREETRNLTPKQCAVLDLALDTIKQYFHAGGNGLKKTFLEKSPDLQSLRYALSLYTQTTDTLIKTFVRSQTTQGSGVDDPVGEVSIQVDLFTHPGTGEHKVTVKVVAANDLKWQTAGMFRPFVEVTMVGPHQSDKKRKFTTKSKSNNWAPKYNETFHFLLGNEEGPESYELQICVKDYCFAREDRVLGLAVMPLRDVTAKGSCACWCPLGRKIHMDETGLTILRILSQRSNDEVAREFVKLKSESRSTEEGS

Substance	solubility in G1/S (log2) (HeLa Kyoto [1])	melting temperature (HeLa Kyoto [2]; cell cycle stage: G1/S) [°C]	melting temperature (HeLa Kyoto [2]; cell cycle stage: mitosis) [°C]	solubility change mitosis (log2) (HeLa Kyoto [3])
MNRPAPVEISYENMRFLITHNPTNATLNKFTEELKKYGVTTLVRVCDATYDKAPVEKEGIHVLDWPFDDGAPPPNQIVDDWLNLLKTKFREEPGCCVAVHCVAGLGRAPVLVALALIECGMKYEDAVQFIRQKRRGAFNSKQLLYLEKYRPKMRLRFRDTNGHCCVQ [PTP4A2]	-0.226	53.7	54.1	-0.087
HMGN3	-0.266	–	56.8	1.55
MAEPDYIEDDNPELIRPQKLINPVKTSRNHQDLHRELLMNQKRGLAPQNKPELQKVMEKRKRDQVIKQKEEEAQKKKSDLEIELLKRQQKLEQLELEKQKLQEEQENAPEFVKVKGNLRRTGQEVAQAQES [FAM107B]	0.00364	57.3	–	0.435
MMWQKYAGSRRSMPLGARILFHGVFYAGGFAIVYYLIQKFHSRALYYKLAVEQLQSHPEAQEALGPPLNIHYLKLIDRENFVDIVDAKLKIPVSGSKSEGLLYVHSSRGGPFQRWHLDEVFLELKDGQQIPVFKLSGENGDEVKKE [COA1]	0.0268	54.7	55.7	0.0489
MWPPCGTLRTLALARSRGARACSGDGGVSYTQGQSPEPRTREYFYYVDHQGQLFLDDSKMKNFITCFKDPQFLVTFFSRLRPNRSGRYEAAFPFLSPCGRERNFLRCEDRPVVFTHLLTADHGPPRLSYCGGGEALAVPFEPARLLPLAANGRLYHPAPERAGGVGLVRSALAFELSACFEYGPGAPALPSHVRWQGRRLALTMDLAPLLLAARSP [C8ORF82]	0.265	52.4	54.3	0.0375
MPAFLGLKCLGKLCSSEKSKVTSSERTSARGSNRKRLIVEDRRVSGTSFTAHRRATITHLLYLCPKDYCPRGRVCNSVDPFVAHPQDPHHPSEKPVIHCHKCGEPCKGEVLRVQTKHFHIKCFTCKVCGCDLAQGGFFIKNGEYLCTLDYQRMYGTRCHGCGEFVEGEVVTALGKTYHPNCFACTICKRPFPPGDRVTFNGRDCLCQLCAQPMSSSPKETTFSSNCAGCGRDIKNGQALLALDKQWHLGCFKCKSCGKVLTGEYISKDGAPYCEKDYQGLFGVKCEACHQFITGKVLEAGDKHYHPSCARCSRCNQMFTEGEEMYLQGSTVWHPDCKQSTKTEEKLRPTRTSSESIYSRPGSSIPGSPGHTIYAKVDNEILDYKDLAAIPKVKAIYDIERPDLITYEPFYTSGYDDKQERQSLGESPRTLSPTPSAEGYQDVRDRMIHRSTSQGSINSPVYSRHSYTPTTSRSPQHFHRPGNEPSSGRNSPLPYRPDSRPLTPTYAQAPKHFHVPDQGINIYRKPPIYKQHAALAAQSKSSEDIIKFSKFPAAQAPDPSETPKIETDHWPGPPSFAVVGPDMKRRSSGREEDDEELLRRRQLQEEQLMKLNSGLGQLILKEEMEKESRERSSLLASRYDSPINSASHIPSSKTASLPGYGRNGLHRPVSTDFAQYNSYGDVSGGVRDYQTLPDGHMPAMRMDRGVSMPNMLEPKIFPYEMLMVTNRGRNKILREVDRTRLERHLAPEVFREIFGMSIQEFDRLPLWRRNDMKKKAKLF [ABLIM1]	-0.8	46.2	51.7	0.599
MMGCFALQTVDTELTADSVEWCPLQGCRHLLACGTYQLRRPEDRPAGPQNKGGMEVKEPQVRLGRLFLYSFNDNNSIHPLVEVQRKDTSAILDMKWCHIPVAGHALLGLADASGSIQLLRLVESEKSHVLEPLSSLALEEQCLALSLDWSTGKTGRAGDQPLKIISSDSTGQLHLLMVNETRPRLQKVASWQAHQFEAWIAAFNYWHPEIVYSGGDDGLLRGWDTRVPGKFLFTSKRHTMGVCSIQSSPHREHILATGSYDEHILLWDTRNMKQPLADTPVQGGVWRIKWHPFHHHLLLAACMHSGFKILNCQKAMEERQEATVLTSHTLPDSLVYGADWSWLLFRSLQRAPSWSFPSNLGTKTADLKGASELPTPCHECREDNDGEGHARPQSGMKPLTEGMRKNGTWLQATAATTRDCGVNPEEADSAFSLLATCSFYDHALHLWEWEGN [DPH7]	-0.0249	–	57.1	-0.0679
MAFTNYSSLNRAQLTFEYLHTNSTTHEFLFGALAELVDNARDADATRIDIYAERREDLRGGFMLCFLDDGAGMDPSDAASVIQFGKSAKRTPESTQIGQYGNGLKSGSMRIGKDFILFTKKEDTMTCLFLSRTFHEEEGIDEVIVPLPTWNARTREPVTDNVEKFAIETELIYKYSPFRTEEEVMTQFMKIPGDSGTLVIIFNLKLMDNGEPELDIISNPRDIQMAETSPEGTKPERRSFRAYAAVLYIDPRMRIFIHGHKVQTKRLSCCLYKPRMYKYTSSRFKTRAEQEVKKAEHVARIAEEKAREAESKARTLEVRLGGDLTRDSRVMLRQVQNRAITLRREADVKKRIKEAKQRALKEPKELNFVFGVNIEHRDLDGMFIYNCSRLIKMYEKVGPQLEGGMACGGVVGVVDVPYLVLEPTHNKQDFADAKEYRHLLRAMGEHLAQYWKDIAIAQRGIIKFWDEFGYLSANWNQPPSSELRYKRRRAMEIPTTIQCDLCLKWRTLPFQLSSVEKDYPDTWVCSMNPDPEQDRCEASEQKQKVPLGTFRKDMKTQEEKQKQLTEKIRQQQEKLEALQKTTPIRSQADLKKLPLEVTTRPSTEEPVRRPQRPRSPPLPAVIRNAPSRPPSLPTPRPASQPRKAPVISSTPKLPALAAREEASTSRLLQPPEAPRKPANTLVKTASRPAPLVQQLSPSLLPNSKSPREVPSPKVIKTPVVKKTESPIKLSPATPSRKRSVAVSDEEEVEEEAERRKERCKRGRFVVKEEKKDSNELSDSAGEEDSADLKRAQKDKGLHVEVRVNREWYTGRVTAVEVGKHVVRWKVKFDYVPTDTTPRDRWVEKGSEDVRLMKPPSPEHQSLDTQQEGGEEEVGPVAQQAIAVAEPSTSECLRIEPDTTALSTNHETIDLLVQILRNCLRYFLPPSFPISKKQLSAMNSDELISFPLKEYFKQYEVGLQNLCNSYQSRADSRAKASEESLRTSERKLRETEEKLQKLRTNIVALLQKVQEDIDINTDDELDAYIEDLITKGD [MORC2]	-0.0374	48.1	48.6	-0.0838
ZNF593	-0.278	57.9	51.7	1.09
MEGGGGIPLETLKEESQSRHVLPASFEVNSLQKSNWGFLLTGLVGGTLVAVYAVATPFVTPALRKVCLPFVPATTKQIENVVKMLRCRRGSLVDIGSGDGRIVIAAAKKGFTAVGYELNPWLVWYSRYRAWREGVHGSAKFYISDLWKVTFSQYSNVVIFGVPQMMLQLEKKLERELEDDARVIACRFPFPHWTPDHVTGEGIDTVWAYDASTFRGREKRPCTSMHFQLPIQA [FAM173B]	-0.208	54.7	–	-0.0503
MASSLNEDPEGSRITYVKGDLFACPKTDSLAHCISEDCRMGAGIAVLFKKKFGGVQELLNQQKKSGEVAVLKRDGRYIYYLITKKRASHKPTYENLQKSLEAMKSHCLKNGVTDLSMPRIGCGLDRLQWENVSAMIEEVFEATDIKITVYTL [OARD1]	0.299	–	50.5	0.139
MEGQSVEELLAKAEQDEAEKLQRITVHKELELQFDLGNLLASDRNPPTGLRCAGPTPEAELQALARDNTQLLINQLWQLPTERVEEAIVARLPEPTTRLPREKPLPRPRPLTRWQQFARLKGIRPKKKTNLVWDEVSGQWRRRWGYQRARDDTKEWLIEVPGNADPLEDQFAKRIQAKKERVAKNELNRLRNLARAHKMQLPSAAGLHPTGHQSKEELGRAMQVAKVSTASVGRFQERLPKEKVPRGSGKKRKFQPLFGDFAAEKKNQLELLRVMNSKKPQLDVTRATNKQMREEDQEEAAKRRKMSQKGKRKGGRQGPGGKRKGGPPSQGGKRKGGLGGKMNSGPPGLGGKRKGGQRPGGKRRK [RRS1]	-1.81	55.2	53	1.09
MAGSPELVVLDPPWDKELAAGTESQALVSATPREDFRVRCTSKRAVTEMLQLCGRFVQKLGDALPEEIREPALRDAQWTFESAVQENISINGQAWQEASDNCFMDSDIKVLEDQFDEIIVDIATKRKQYPRKILECVIKTIKAKQEILKQYHPVVHPLDLKYDPDPAPHMENLKCRGETVAKEISEAMKSLPALIEQGEGFSQVLRMQPVIHLQRIHQEVFSSCHRKPDAKPENFITQIETTPTETASRKTSDMVLKRKQTKDCPQRKWYPLRPKKINLDT [NSL1]	0.0226	50.2	49.9	-0.0661
MASYFDEHDCEPSDPEQETRTNMLLELARSLFNRMDFEDLGLVVDWDHHLPPPAAKTVVENLPRTVIRGSQAELKCPVCLLEFEEEETAIEMPCHHLFHSSCILPWLSKTNSCPLCRYELPTDDDTYEEHRRDKARKQQQQHRLENLHGAMYT [RNF181]	0.563	54.8	55.8	0.00514
UNC13B	-0.113	50.3	49.4	-0.114
MDDSETGFNLKVVLVSFKQCLDEKEEVLLDPYIASWKGLVRFLNSLGTIFSFISKDVVSKLRIMERLRGGPQSEHYRSLQAMVAHELSNRLVDLERRSHHPESGCRTVLRLHRALHWLQLFLEGLRTSPEDARTSALCADSYNASLAAYHPWVVRRAVTVAFCTLPTREVFLEAMNVGPPEQAVQMLGEALPFIQRVYNVSQKLYAEHSLLDLP [CPTP]	-0.0351	49.1	48.4	-0.256
MAQSINITELNLPQLEMLKNQLDQEVEFLSTSIAQLKVVQTKYVEAKDCLNVLNKSNEGKELLVPLTSSMYVPGKLHDVEHVLIDVGTGYYVEKTAEDAKDFFKRKIDFLTKQMEKIQPALQEKHAMKQAVMEMMSQKIQQLTALGAAQATAKA [PFDN5]	-0.425	54.4	53.1	0.784
H2AFV	-0.332	52.5	–	0.429
MSEEEQGSGTTTGCGLPSIEQMLAANPGKTPISLLQEYGTRIGKTPVYDLLKAEGQAHQPNFTFRVTVGDTSCTGQGPSKKAAKHKAAEVALKHLKGGSMLEPALEDSSSFSPLDSSLPEDIPVFTAAAAATPVPSVVLTRSPPMELQPPVSPQQSECNPVGALQELVVQKGWRLPEYTVTQESGPAHRKEFTMTCRVERFIEIGSGTSKKLAKRNAAAKMLLRVHTVPLDARDGNEVEPDDDHFSIGVGSRLDGLRNRGPGCTWDSLRNSVGEKILSLRSCSLGSLGALGPACCRVLSELSEEQAFHVSYLDIEELSLSGLCQCLVELSTQPATVCHGSATTREAARGEAARRALQYLKIMAGSK [TARBP2]	0.152	–	51.7	0.129
